{
  "source": "paper PMC11449375",
  "key": {"[1]": {"molecular_target": "AMC008 SOSIP.v9 (HIV-1 clade B, AMC008)", "assay": "negative-stain EM; purified SOSIPs incubated with Adjuplex, on carbon-covered copper grids, 2% uranyl formate; 2D class averages"}, "[2]": {"molecular_target": "AMC008 SOSIP.v9 (HIV-1 clade B, AMC008)", "assay": "native gel or EMSA; Blue Native-PAGE of the purified SOSIP.v9 proteins, 3-12% Bis-Tris NuPAGE gel, 2 ug protein, Colloidal blue stain"}, "[3]": {"molecular_target": "TRO.11 SOSIP.v9 (HIV-1 clade B, TRO.11)", "assay": "negative-stain EM; purified SOSIPs incubated with Adjuplex, on carbon-covered copper grids, 2% uranyl formate; 2D class averages"}, "[4]": {"molecular_target": "TRO.11 SOSIP.v9 (HIV-1 clade B, TRO.11)", "assay": "native gel or EMSA; Blue Native-PAGE of the purified SOSIP.v9 proteins, 3-12% Bis-Tris NuPAGE gel, 2 ug protein, Colloidal blue stain"}, "[5]": {"molecular_target": "AMC016 SOSIP.v9 (HIV-1 clade B, AMC016)", "assay": "negative-stain EM; purified SOSIPs incubated with Adjuplex, on carbon-covered copper grids, 2% uranyl formate; 2D class averages"}, "[6]": {"molecular_target": "AMC016 SOSIP.v9 (HIV-1 clade B, AMC016)", "assay": "native gel or EMSA; Blue Native-PAGE of the purified SOSIP.v9 proteins, 3-12% Bis-Tris NuPAGE gel, 2 ug protein, Colloidal blue stain"}, "[7]": {"molecular_target": "AMC009 SOSIP.v9 (HIV-1 clade B, AMC009)", "assay": "negative-stain EM; purified SOSIPs incubated with Adjuplex, on carbon-covered copper grids, 2% uranyl formate; 2D class averages"}, "[8]": {"molecular_target": "AMC009 SOSIP.v9 (HIV-1 clade B, AMC009)", "assay": "native gel or EMSA; Blue Native-PAGE of the purified SOSIP.v9 proteins, 3-12% Bis-Tris NuPAGE gel, 2 ug protein, Colloidal blue stain"}, "[9]": {"molecular_target": "AMC011 SOSIP.v9 (HIV-1 clade B, AMC011)", "assay": "negative-stain EM; purified SOSIPs incubated with Adjuplex, on carbon-covered copper grids, 2% uranyl formate; 2D class averages"}, "[10]": {"molecular_target": "AMC011 SOSIP.v9 (HIV-1 clade B, AMC011)", "assay": "native gel or EMSA; Blue Native-PAGE of the purified SOSIP.v9 proteins, 3-12% Bis-Tris NuPAGE gel, 2 ug protein, Colloidal blue stain"}},
  "data": [
    {"substance": "AMC008 SOSIP.v9 (complex)", "values": [
      {"measurement": "stoichiometry N", "setting": "[1]", "result": 3},
      {"measurement": "stoichiometry N", "setting": "[2]", "result": 3}
    ]},
    {"substance": "TRO.11 SOSIP.v9 (complex)", "values": [
      {"measurement": "stoichiometry N", "setting": "[3]", "result": 3},
      {"measurement": "stoichiometry N", "setting": "[4]", "result": 3}
    ]},
    {"substance": "AMC016 SOSIP.v9 (complex)", "values": [
      {"measurement": "stoichiometry N", "setting": "[5]", "result": 3},
      {"measurement": "stoichiometry N", "setting": "[6]", "result": 3}
    ]},
    {"substance": "AMC009 SOSIP.v9 (complex)", "values": [
      {"measurement": "stoichiometry N", "setting": "[7]", "result": 3},
      {"measurement": "stoichiometry N", "setting": "[8]", "result": 3}
    ]},
    {"substance": "AMC011 SOSIP.v9 (complex)", "values": [
      {"measurement": "stoichiometry N", "setting": "[9]", "result": 3},
      {"measurement": "stoichiometry N", "setting": "[10]", "result": 3}
    ]}
  ]
}
